Data on 14 molecules can be found in PMC5382266 (Nature Communications, 2017).

As a reminder, the stoichiometry N is the number of molecules, sites or subunits per partner or assembly. What is called Kd is the equilibrium constant for the complex coming apart. Read a high Kd as lower affinity. One may read the koff as the first-order rate constant of dissociation. A low value points to slow dissociation. As a reminder, the kon is the rate constant with which the complex forms. A higher kon goes with faster complex formation.

T1: TSLPR^N47Q (human, UniProt Q9HC73-1 23-221, N47Q)
T1 construct: signal peptide in the construct; extracellular fragment of human TSLPR, NP_071431.2, residues 1-221, N-glycosylation mutant N47Q; also called EndoH-treated TSLPR^N47Q
T1 sequence (looked up): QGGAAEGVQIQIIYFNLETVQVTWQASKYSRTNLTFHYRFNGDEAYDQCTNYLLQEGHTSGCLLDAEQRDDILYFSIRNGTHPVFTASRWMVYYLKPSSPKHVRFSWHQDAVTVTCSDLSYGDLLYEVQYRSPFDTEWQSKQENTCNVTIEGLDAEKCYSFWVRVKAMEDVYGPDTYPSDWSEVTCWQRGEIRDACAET

T2: full-length HA-tagged human IL-7Rα (human, UniProt P16871-1 21-459)
T2 sequence (looked up): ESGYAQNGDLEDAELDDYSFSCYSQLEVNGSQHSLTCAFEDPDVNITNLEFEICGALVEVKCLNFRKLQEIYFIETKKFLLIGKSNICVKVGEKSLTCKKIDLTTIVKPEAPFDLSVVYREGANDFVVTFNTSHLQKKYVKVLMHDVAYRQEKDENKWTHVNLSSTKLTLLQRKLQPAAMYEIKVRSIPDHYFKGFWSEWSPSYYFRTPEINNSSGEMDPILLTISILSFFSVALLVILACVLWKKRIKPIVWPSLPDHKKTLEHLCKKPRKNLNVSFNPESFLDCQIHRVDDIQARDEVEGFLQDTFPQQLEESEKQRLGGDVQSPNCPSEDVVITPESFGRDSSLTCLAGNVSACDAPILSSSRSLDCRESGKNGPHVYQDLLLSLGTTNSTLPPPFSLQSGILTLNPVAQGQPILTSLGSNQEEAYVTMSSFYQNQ

B1: TSLP^Δ127–131 (ligand, human, UniProt Q969D9-1 29-159, looked up)
chain: YDFTNCDFEKIKAAYLSTISKDLITYMSGTKSTEFNNTVSCSNRPHCLTEIQSLTFNPTAGCASLAKEMFAMKTKAALAIWCPGYSETQINATQAMKKVTTNKCLEQVSQLQGLWRRFNRPLLKQQ
notes: His tag removed with thrombin; also called non-glycosylated human TSLP lacking a basic cassette; not shown: His6, N-terminal, cleaved
B2: TSLP-trap1 (other, human)
chain: QGGAAEGVQIQIIYFNLETVQVTWNASKYSRTNLTFHYRFNGDEAYDQCTNYLLQEGHTSGCLLDAEQRDDILYFSIRNGTHPVFTASRWMVYYLKPSSPKHVRFSWHQDAVTVTCSDLSYGDLLYEVQYRSPFDTEWQSKQENTCNVTIEGLDAEKCYSFWVRVKAMEDVYGPDTYPSDWSEVTCWQRGEIRDACAETPTPPKPKLSKGGSGGSGGSGGSGGSGGSGGSGGSGGSGGSGGSGGSGGSGGSGGSGGSGGSGGSGGSGGSESGYAQNGDLEDAELDDYSFSCYSQLEVNGSQHSLTCAFEDPDVNITNLEFEICGALVEVKCLNFRKLQEIYFIETKKFLLIGKSNICVKVGEKSLTCKKIDLTTIVKPEAPFDLSVVYREGANDFVVTFNTSHLQKKYVKVLMHDVAYRQEKDENKWTHVNLSSTKLTLLQRKLQPAAMYEIKVRSIPDHYFKGFWSEWSPSYYFRTPEINNSSGEMD
notes: signal peptide in the construct; extracellular domain of human TSLPR, NP_071431.2, residues 1-231 (native secretion signal of TSLPR used); flexible (Gly-Gly-Ser)20 linker, written out from the printed formula; extracellular part of human IL-7Rα, NP_002176.2, residues 21-239; also called Human TSLP-trap1; hTSLPtrap1
B3: TSLP-Arg149Ser (ligand, human, UniProt Q969D9-1 29-159, looked up)
chain: YDFTNCDFEKIKAAYLSTISKDLITYMSGTKSTEFNNTVSCSNRPHCLTEIQSLTFNPTAGCASLAKEMFAMKTKAALAIWCPGYSETQINATQAMKKARKSKVTTNKCLEQVSQLQGLWSRFNRPLLKQQ
B4: TSLP-Arg149Ser/Arg150Ser (ligand, human, UniProt Q969D9-1 29-159, looked up)
chain: B3 chain with R122S
B5: TSLP-Arg153Ser (ligand, human, UniProt Q969D9-1 29-159, looked up)
chain: B3 chain with S121R, R125S
B6: TSLP-Arg150Ser (ligand, human, UniProt Q969D9-1 29-159, looked up)
chain: B3 chain with S121R, R122S
B7: refolded IL-7Rα ectodomain (domain or fragment, human, UniProt P16871-1 21-239, looked up)
chain: ESGYAQNGDLEDAELDDYSFSCYSQLEVNGSQHSLTCAFEDPDVNITNLEFEICGALVEVKCLNFRKLQEIYFIETKKFLLIGKSNICVKVGEKSLTCKKIDLTTIVKPEAPFDLSVVYREGANDFVVTFNTSHLQKKYVKVLMHDVAYRQEKDENKWTHVNLSSTKLTLLQRKLQPAAMYEIKVRSIPDHYFKGFWSEWSPSYYFRTPEINNSSGEMD
notes: extracellular fragment of human IL-7Rα, NP_002176.2, residues 21-239; His tag removed with thrombin; also called IL-7Rα ectodomain (E. coli); not shown: His6, N-terminal, cleaved
B8: soluble IL-7Rα ectodomain (domain or fragment, human, UniProt P16871-1 21-239, looked up)
chain: B7 chain
notes: signal peptide in the construct; extracellular fragment of human IL-7Rα, NP_002176.2, residues 1-239; also called interleukin 7 receptor α-chain
B9: soluble TSLPR ectodomain (domain or fragment, human, UniProt Q9HC73-1 23-221, looked up)
chain: T1 sequence (looked up) with Q25N
B10: TSLP-trap2 (other, human)
chain: ESGYAQNGDLEDAELDDYSFSCYSQLEVNGSQHSLTCAFEDPDVNITNLEFEICGALVEVKCLNFRKLQEIYFIETKKFLLIGKSNICVKVGEKSLTCKKIDLTTIVKPEAPFDLSVVYREGANDFVVTFNTSHLQKKYVKVLMHDVAYRQEKDENKWTHVNLSSTKLTLLQRKLQPAAMYEIKVRSIPDHYFKGFWSEWSPSYYFRTPEINNSSGEMDGGSGGSGGSGGSGGSGGSGGSGGSGGSGGSGGSGGSGGSGGSGGSGGSGGSGGSGGSGGSQGGAAEGVQIQIIYFNLETVQVTWNASKYSRTNLTFHYRFNGDEAYDQCTNYLLQEGHTSGCLLDAEQRDDILYFSIRNGTHPVFTASRWMVYYLKPSSPKHVRFSWHQDAVTVTCSDLSYGDLLYEVQYRSPFDTEWQSKQENTCNVTIEGLDAEKCYSFWVRVKAMEDVYGPDTYPSDWSEVTCWQRGEIRDACAETPTPPKPKLSK
B11: TSLPR-Asp157Ala/Glu159Ala (receptor)
chain: QGGAAEGVQIQIIYFNLETVQVTWNASKYSRTNLTFHYRFNGDEAYDQCTNYLLQEGHTSGCLLDAEQRDDILYFSIRNGTHPVFTASRWMVYYLKPSSPKHVRFSWHQDAVTVTCSDLSYGDLLYEVQYRSPFATAWQSKQENTCNVTIEGLDAEKCYSFWVRVKAMEDVYGPDTYPSDWSEVTCWQRGEIRDACAETPTPPKPKLSKFILISSLAILLMVSLLLLSLWKLWRVKKFLIPSVPDPKSIFPGLFEIHQGNFQEWITDTQNVAHLHKMAGAEQESGPEEPLVVQLAKTEAESPRMLDPQTEEKEASGGSLQLPHQPLQGGDVVTIGGFTFVMNDRSYVAL
B12: full-length FLAG-tagged human TSLPR (receptor, UniProt Q9HC73-1 23-371, looked up)
chain: B11 chain with A135D, A137E
B13: TSLPR-Asp176Ala/Glu178Ala/Lys179Ala (receptor)
chain: B11 chain with A135D, A137E, D154A, E156A, K157A
B14: TSLPR-Phe156Ala/Asp157Ala/Glu159Ala (receptor)
chain: B11 chain with F134A

Assay [1] has as its target T1, TSLPR^N47Q. In words: SEC-MALS; Superdex 200 Increase 10/300 GL, HBS pH 7.4, 0.5 ml/min, 25 °C; glycan-minimized ternary complex. As to conditions: both partners purified. In general terms: SEC sorts molecules by how far they enter the pores of the column.
Assay [2] concerns the target T3, biotinylated TSLP^R127A/R130S (human, UniProt Q969D9-1 29-159, R127A | R130S, biotin, C-terminal (in vivo biotinylation)).
T3 construct: signal peptide in the construct; glycosylated, mammalian-derived; also called thymic stromal lymphopoietin; source: HEK293T, co-transfected with pDisplay-BirA-ER, purified from conditioned medium (IMAC, SEC); not shown: Avi tag (from the vector pHL-AVITAG), C-terminal, kept
In words: BLI; biotinylated TSLP^R127A/R130S on streptavidin biosensors, analyte in solution; PBS with 0.01% BSA and 0.002% Tween 20, 25 °C, Octet RED96; 1:1 model. Particulars: both partners purified. For orientation: BLI is a label-free optical method that tracks binding on a fibre tip over time.

The target of assay [3] is wild type TSLP (TSLP^R127A/R130S) (human, UniProt Q969D9-1 29-159, R127A | R130S). Kind of assay: cell-based or functional assay.
Assay [4] deals with B12. In words: cell-based or functional assay.
In assay [5] the target is T4, binary TSLP^Δ127–131:TSLPR^N47Q complex (human, UniProt Q969D9-1 29-159; Q9HC73-1 23-221, Δ127–131 | N47Q).
T4 construct: as the chain of m8; signal peptide in the construct; extracellular fragment of human TSLPR, NP_071431.2, residues 1-221, N47Q; as the chain of m9; also called TSLP:TSLPR^N47Q complex; not shown: His6, N-terminal, cleaved; copies: 1 + 1
Kind of assay: SEC-MALS; Superdex 200 Increase 10/300 GL, HBS pH 7.4, 0.5 ml/min, 25 °C; glycan-minimized ternary complex. Particulars: both partners purified.

The target in assay [6] is T5, preformed TSLP:TSLPR binary complex (human, UniProt Q969D9-1 29-159; Q9HC73-1 23-221, R127A | R130S, biotin, C-terminal (in vivo biotinylation)).
T5 construct: signal peptide in the construct; as the chain of m1; extracellular fragment of human TSLPR, NP_071431.2, residues 1-221; as the chain of m2; 320 nM TSLPR was kept in the kinetics buffer and in all IL-7Rα samples; also called TSLP:TSLPR complex; not shown: Avi tag (from the vector pHL-AVITAG), C-terminal, kept
Kind of assay: BLI; TSLP-loaded biosensors incubated with 320 nM TSLPR, which was also in the assay buffer and all IL-7Rα samples; PBS with 0.01% BSA and 0.002% Tween 20, 25 °C; 1:1 model. As to conditions: both partners purified.

Assay [7] has as its target T2, full-length HA-tagged human IL-7Rα.
Assay [8] has the same target. In words: cell-based or functional assay.

Substitutions are numbered along the chain they refer to.

Regarding B1, the “stoichiometry N” value in assay [1] came out at 1. In assay [2], B2 gave a Kd of 0.12 nM and an off-rate constant (koff) of 2e-05 s⁻¹. Further, the “IC50 of inhibition of STAT5 activity induced by 10 pM TSLP in HEK293T cells expressing TSLPR and IL-7Rα” value in assay [3] is 67 pM. As to B3, the “EC50 of STAT5 activity (luciferase reporter) induced by TSLP in HEK293T cells expressing WT TSLPR and IL-7Rα” value in assay [4] is 0.0028 nM. Same read-out and setting: for B4 the value was 0.1 nM; for B5, 0.019 nM. Same read-out and setting: the figure for B6 is 0.0095 nM. On to B7, for which the “stoichiometry N” value in assay [5] was 1. For the molecule B8, in assay [6], the Kd was 29 nM, the koff is 0.0036 s⁻¹ and the on-rate (kon) stood at 123000 M⁻¹ s⁻¹. In the case of B9, the “IC50 of inhibition of STAT5 activity induced by 10 pM TSLP by an equimolar mixture of the soluble TSLPR and IL-7Rα ectodomains” value in assay [3] was found to be 49 nM. For the molecule B10, the “IC50 of inhibition of STAT5 activity induced by 10 pM TSLP in HEK293T cells expressing TSLPR and IL-7Rα” value in assay [3] turned out to be 44 pM.

B11 displayed an EC50 of TSLP-induced STAT5 activity in cells expressing mutant TSLPR and IL-7Rα in assay [7] of 0.085 nM. B12: the “EC50 of TSLP-induced STAT5 activity in cells expressing WT TSLPR and IL-7Rα (control of the site III mutants)” value in assay [8] came out at 0.011 nM. In assay [7], B13 had an EC50 of TSLP-induced STAT5 activity in cells expressing mutant TSLPR and IL-7Rα of 0.049 nM. Same read-out and setting: the figure for B14 is 0.4 nM.
